From the nanobody polyreactivity screen of Harvey et al. (2022)

Assay: yeast display, Sf9 membrane polyspecificity reagent, FACS + sequencing; frameworks hold sequencing errors
Outline: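 Nanobodies from a synthetic yeast display library (Saccharomyces cerevisiae BJ5465), induced 36–48 hours with galactose, were stained 1 hour at 4 °C with 10% biotinylated, detergent-solubilized Sf9 membrane reagent, enriched on streptavidin microbeads, then FACS-sorted. Anti-HA (expression) and streptavidin (reagent binding) fluorescence set low and high (top ~1%) gates. Polyreactivity labels come from the gate of origin. Genes were colony-PCR amplified, MiSeq 2 × 250 sequenced and filtered by CDR length.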

Sequence	polyreactivity (PSR sort gate)
QVQLVESGGGLVQAGGSLRLSCAASGSIFNYYAMGWYRQAPGKERELVAAITSGVSTYADSVKGRFTISRDNAKNTVYLQMNSLKPEVTAVYYCADRVTGPRGDYWGQGTQVTVSS	low polyreactivity
QVQLVESGGGLVEAGGSLRLSCAASGSTFRRYAMGWYRQAPVKERELVAAISTRGGSTYYADSVKGRFTISRDNAKNTVYLQMNSLKPEDTEVYYCAADPYYTLGYYYWGQGTQVTVSS	high polyreactivity
QVQLVESGGGLVQAGGSLLLSCAASGRIIGYYAMGLYRQAPVKERELVAAISRRGGSTYYADSVKGRFTISRDNAKNTVYLQINSLKPEDTAVYYCNADRVLTRPRYDYWGQGTQVTVSS	low polyreactivity
QVQLVESGGGLVQAGGSLRLSCAASGRIFAYYAMGWYRQAPGKERELVAAINWSGDGTIYADSVKWRFTISRDNAKNTVYLQMNSLKPQDTAVYYCNADWTSYGFGTRLDYWGQGNQVTVSS	low polyreactivity
QVQLVESGGGLVQAGGSLRLSCAASGRTLAHYTMGWYRQAPGKERELVAAITFSGGRTYYAHSVKGRFTISRDNAKNTVYLQMNSLKPEDTAVYYCAAPGRCYYRGDDYWGQGTQVTVSS	low polyreactivity
QVQLVESVGGLVQAGGSLRLSCAASGSTFKGYYMGWYRQAPGKERELVAAIDSGGSTYYADSVKGRFTISRDNAKNTVYLQMNSLNPVDTAVYYCAATGQDTYGLDVVDEYDYWGQGTKVTVSS	low polyreactivity
QVQLVESGGGLVQAGGSLRLSCAASGRTFSRYAMGWYRQAPGKERELVAAISYSGGRTYYADSVKGRFTISRDNAKNTVYLQMNSLKPEDTAVYYCAASWPGHTVDYDYWGQGTQVTVSS	high polyreactivity
QVQLVESGGGLVQAGGSLRLSCAASGRIFAYNARGWYRQAPGKERELVADISSGGNTYYADSVKGRFTISRDNAKNTVYLQMNSLKPEDTAVYYCAADIAWYTHYHRIFDYWGQGTQVTVSS	low polyreactivity
QVQLVESGGGLVQAGGILRLSCAASGITFRRSAKGWYRQAPGKERELVAGISYSGGTTYYADSVKGRFTISRDNAKNTVYLQMNSLKAEDTAVYYCAAKRISYTREGYSQYDDWGQGSQVTVSS	high polyreactivity
QVQLVESGGGLVQAGGSLRLSCAASGSIFSIYAMEWYRQAPGKERELVAAITWGGGSTYYADSVKGRFTISRDNAKNTVYLQMNSLKPEDTAVYYCAADSLTWYGTYYYWGQGTQVTVSS	high polyreactivity
QVQLVESAGGLVQAGGSLRLSCAASGITFRYYAMGWYRQAPGKERELVATITRGGSTYYADSVKGRFTISRDNAKNTVYLQMNSLKPEDTAVYYCAARSYVPSYDYWGQGTQVTVSS	high polyreactivity
QVQLQERGGGLVQAGGSLCLSCAASGTIFFDGDMGWYRQAPGKEREFVAAINPGGSAYYADSVKGRLPLAAITHTVYLQMNSLKPEDTAVYYCAAKLFDVYGYYYWGQGTHVTVSS	low polyreactivity
QVQLVESGGGLVQAGGSLRLSCAASGSTFDVYAMGWYRQAPGKERELVAAISRSGGSTYYADSVKGRFTISRDNAKNTVYLQMNSLKPEDTAVSYCNARLARWGSDEYNYWGQGTQVTVSS	low polyreactivity
QVQLVESGGGLVQAGGSLRLSCAASGFIFYDYAMGWYRQAPGKERELVASISWSSGSTYYADSVKGRFTISRDNAKNTVYLQMNSLKPEDTAVYYWAADGYPLQLYNYWGLGTQVTVSS	low polyreactivity
QVQLVESGGGLVQAGGSLRLSCAASGFIVTPYTMGWYRQAAGKERELVAAITDGSSTYYADSVKGRFTISRDNAKNTDYLQMNSLKPEETAVYYFNADGKPPYISWLYDYWGHGTQVTVSS	low polyreactivity
QVQLVESGGGLVQAGGSLRLSCAASGGTFPYNAMGWYRQAPGKERELVAVITSGDGTYYADSVKGRFTISRDNAKNTVYLQMNSLKPEDTAVYYCAADYVVWFSFVYVVEYDYWGQGTQVTVSS	low polyreactivity
QVQLVESGGGLVQAGGSLPLSCAASGRTFDVYPMGWYRQAPGKERELVAAINGGGSTYYADSVKGRFTISRDNAKNTVYLQINSLKPEDTALYYCAAKFRAGRSSYYWGQGTQVTVSS	high polyreactivity
QVQLVESGGGLVQAGGSLRLSCAASGFNFNKNAMGWYRQAPGKERELVAAISGTGGSTYYADSVKVRFTISRDNAKNTVYLQMNSLKPEDTAVYFCASRRYRQFSTGGQPGYYWGQGTLVTVSS	high polyreactivity
QVQLVESGGGLVQAGGSLRLSCAASGSTFWWNTRGWYRQAPGKERELVADIRTSGGGTYYADSVKGRFTISLDNAKNTFYLQMNSLKPEDTAVYYCNADPKWEMGSWGQGTQVTVSS	low polyreactivity
QVQLVESGGGLVQAGGSLRFSCVASGSIFRGNAKGWYRQAPGKERELVASISKGGGSTYYADSVKGRFLISRDNAKNTVYLQMNSLKPEDTAVYYCAARGGLDGIQYDYDYWGQGTQVTVSS	low polyreactivity
QVQLVESGGGLVQAGGSLRLSCAASVFLPYTMGWYRQAPGKERELVAAITRGGSTYYADSVKGRFTISRDNAKNTVYLQMNSLKPEDTAVYYCAKRSTFAWRGYDYWGQGTEVTVSS	high polyreactivity
QVQLVESGGGLVQAGGSLRLSCAASGRTFERYAMGWYRQAPGKERELVAAISSGGSTNYADSVKGRFTISRDNAKNTVYLQMNSLKPEDTAVYYCNVDWAVKDPSYVSQGEGDYWGQGTQVTVSS	low polyreactivity

Sequence	polyreactivity (PSR sort gate)
QVHQQESGGDLEQAGGSLRLSCTASGTISDVRFMGWYRQAPGKERELVATISYVTITYYADSVKGRFTISRDSEKHRVSADDEHETGRYRGVFLLYYWGLGTQVTVSS	low polyreactivity
QVQLVESGGGLVQAGGSLRLSCAASGFTLYFYAMGWYRQAPGKERELVATITGSGGSTTYADSVKGRFTISRDNAKNTVYLQMNRLKPEDTAVSYCAAVRVVRASRYQTYHWQPGYCYWGQGTQVTVSS	high polyreactivity
QVQLVESGGGLVQAGGSLRLSCAASGSTFSRNAMGWYRQAPGKERELVAAITSGGRTYYADSVKGRFTISRDNAKNTVYLQMNSLKPEDTAVYYCAAVHRYPIHYDYWGQGTQVTVSS	low polyreactivity
QVQLVESGGGLVQAGASLRLSCAASGLTYSHYAMGWYRQAPGKERQLVAGISSRGGNTYYADSVKGRFTISRDNAKNTVYLQMNSLKPEDTAVYYCNAPKPKRAYDYWGQGTQVTVSS	high polyreactivity
QVQLVESGGGLVQAGGSPRLSCAASGRIFHPYAMGWYRQAPGKERELVATISWSGGSTTYADSVKGRFTISRDNAKNTVYLQMNSLKPEDTAVYYCNADYWWSYVRFDYWGQGTQVTVSS	low polyreactivity
QVQLVESGGGLVQAGGSLRLSCAASGLTLAWYAMGWYRQAPGKERELVAAISWSGDSTYYADSVKGRFTISRDNAKNTVYLQMNSLKPEDTAVYYCATRVYGGYGYWGQGTQVTVSS	high polyreactivity
QVQLVESGGGLVQAGGSLRLSCAASGRTLTIYAMGWYRQAPGKERELVATIRSSGSTNYADSVKGRFTISRDNAKNTVYLQMNSLKPEDTAVYYCSARGFYPTNVGKYNYWGQGTQVTVSS	high polyreactivity
RVQLQESGGGLVQAGGSLRLSCAASGNIFDTDIMGWYRQAPGKESELVASITDGGSTTYADSEKGRFTISRDNAKNTVYLQMNSLKPEDTAVYYCAADQGRYGIIGWDDYWGQGTQVTVSS	low polyreactivity
HVQLVESGGGLVQAGGSLPLSCAASGLTFYYNAMGWYRQAPGNERELVAAISFSGGRTYYADSVKGRFTISRDNAKNTVYLQMNSLKPEDTAVYYCNTVGKQHLDYDYWGQGTQVTVSS	high polyreactivity
QVQIVESGGGLVQAGGSLRLTCAASGFIFSRYAMGWYRQAPAKERELVAAITSGGRTNYADSVKGRFTISRDNAKNTVYLQMNRLKPEDTAVYYCSGAFYPFWPRYTSDYWGQGTQVTVSS	high polyreactivity
QVQLVESGGGLVQAGGSLRLSCAASGSIFTYYTMGLYRQAPGKERELVADITGGGSSTYYADSVKGRFTISRDNAKNTVYLQMNSLKPEDTAVYYCAADKYWAQNDYWGQGTQVTVSS	low polyreactivity
QVQLVESGGGLVQAGGSLRLSCAASGRIIGYYAMGWYRQAPGKERELVAAISRRGGSTYYADSVKGRFTISRDNAKNTVYLQMNSLKPEDTAVYYCATLTLESFSALYYWGQGTQVTVSS	low polyreactivity
QVQLVESGGGLVQAGGSLRLSCAASGSIFRYYAMGWYIQAPGKEMELVAAITSSGGSTYYADSVKGRFTISRDNAKNTVYLQMNSLKPEDTAVYDCNARHVRYSRRENDYWGQGTQGTVSS	high polyreactivity
HVQLQESGGGLVQAGGSLRLSCAASGSIFQATYMGWYRQAPGKEREFVASITYGSITNYADSVKGRFTIGRDNAKETLYLQMNSLKPEDTAVYYCAVDRHYIPAFHYWGQGTQVTVSS	low polyreactivity
QVQLVESGGGLVQAGGSLRLSCAASGSTFTNNGMGWYRQAPGKERELVATISWDGDSTYYADSVKGRFTISRDNAKNSVYLQMNSLKPEDTAVYDCAADYRLHYSYPYEVVQYEYWGQGTQVTVSS	low polyreactivity
QVQLVEAGGGLVQAGGSLRLSCAASGNIFLYYAMGWYRQAPGKEREFVADIDSSGASTYYADSVKGRFTISRDNAKNTVYLQMNSLKPEDTAVYYCAAEFHWWYAGYDYGYWGQGTQVTVSS	low polyreactivity
QVQLVESGGGLVQAGGSLRLSCAASGRIFSRYAMGWYRQAPGKERELVAAINKSGGSTYYADSVKGRFTISRDNAKNTVYLQMNSLKPEDTAVYYCAAALGRRRTGYDYWGQGTQGTVSS	high polyreactivity
QVQLVESGGGLVQAGGSLRLSCAASGRINLYNAMGWYRQAPRKEMELVAVISYRGGSTYYADSVKGRFTISRENAKNTVYLQMNSLKPDDTAVYYCNKDKSYSGTRYDYWGQGTQVTVSS	high polyreactivity
QVQLVESGGGLVQAGGSLRLSCAASGRILGVNAMGGYRQAPGKERELVAAINFSGGGTYYADSVKGRFTISRDNAKNTVYLQMNSLKPEDTAVYYCAAGYVTTWFRYDYWGWGQGTQVTVSS	low polyreactivity
QVQLVESGGGLVQAGGSLRLSCAASGRIFWNYAMGWYSQAPGKERELVASINWSGGSTYYADSVKGRFTISRDNAKNTVYLQMNSLKPEDTAVYYCNKDGRVYLDHDYWGQGTQVTVSS	low polyreactivity
QVQLVESGRGLVQAGGSLRLSCAASGRIFTKNTMGWYRQAPGKERELVAAIRSRAGSTYYADSVKGRFTISRDNAKNTVYLQMNSLKPEDTAVYYCAVPWFRSVDFDYWGQGTQVTVSS	low polyreactivity
